Assay results: publication PMC12443421

Key:
KDM5A-K152E = molecular target: T1, KDM5A-K152E (UniProt P29375 1-801, K152E); test: EMSA; Nucleosome EMSA: 100 nM nucleosome, 50 mM HEPES pH 7.5, 50 mM KCl, 1 mM BME, 0.01% Tween-20, 0.01% BSA, 5% sucrose, 1 h on ice, gel at 4 C; DNA EMSA: 100 nM DNA, TE with 10% glycerol, gel at 4 C; conditions: protein: recombinant; tags: 6xHis removed by TEV; blunt
T1 sequence: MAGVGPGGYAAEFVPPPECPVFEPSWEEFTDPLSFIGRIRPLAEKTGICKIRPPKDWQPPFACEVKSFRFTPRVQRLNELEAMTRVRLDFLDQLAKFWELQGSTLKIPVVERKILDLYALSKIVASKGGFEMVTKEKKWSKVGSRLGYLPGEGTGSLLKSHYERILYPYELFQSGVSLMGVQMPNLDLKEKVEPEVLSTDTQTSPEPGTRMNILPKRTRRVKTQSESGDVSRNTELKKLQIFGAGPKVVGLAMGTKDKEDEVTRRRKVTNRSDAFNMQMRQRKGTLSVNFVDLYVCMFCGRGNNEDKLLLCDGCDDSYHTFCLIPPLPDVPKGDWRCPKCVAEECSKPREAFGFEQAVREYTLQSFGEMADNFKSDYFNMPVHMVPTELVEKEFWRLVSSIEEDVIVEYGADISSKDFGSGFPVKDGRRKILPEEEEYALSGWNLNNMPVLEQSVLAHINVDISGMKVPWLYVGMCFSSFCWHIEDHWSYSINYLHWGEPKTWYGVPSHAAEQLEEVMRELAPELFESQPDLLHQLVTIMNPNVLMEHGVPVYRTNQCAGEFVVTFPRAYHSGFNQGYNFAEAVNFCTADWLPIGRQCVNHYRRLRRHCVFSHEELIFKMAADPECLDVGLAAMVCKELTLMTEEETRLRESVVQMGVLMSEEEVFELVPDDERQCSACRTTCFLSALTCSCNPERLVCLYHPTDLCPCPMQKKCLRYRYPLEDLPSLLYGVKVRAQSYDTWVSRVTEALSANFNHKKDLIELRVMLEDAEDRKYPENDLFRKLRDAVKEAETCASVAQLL

KDM5A-MutR = molecular target: T2, KDM5A-MutR (UniProt P29375 1-801, R210A;R217A;R219A;R220A;R232A;R264A;R265A;R266A;R271A;R280A;R282A); test: as above; conditions: protein: recombinant; tags: 6xHis removed by TEV; blunt
T2 sequence: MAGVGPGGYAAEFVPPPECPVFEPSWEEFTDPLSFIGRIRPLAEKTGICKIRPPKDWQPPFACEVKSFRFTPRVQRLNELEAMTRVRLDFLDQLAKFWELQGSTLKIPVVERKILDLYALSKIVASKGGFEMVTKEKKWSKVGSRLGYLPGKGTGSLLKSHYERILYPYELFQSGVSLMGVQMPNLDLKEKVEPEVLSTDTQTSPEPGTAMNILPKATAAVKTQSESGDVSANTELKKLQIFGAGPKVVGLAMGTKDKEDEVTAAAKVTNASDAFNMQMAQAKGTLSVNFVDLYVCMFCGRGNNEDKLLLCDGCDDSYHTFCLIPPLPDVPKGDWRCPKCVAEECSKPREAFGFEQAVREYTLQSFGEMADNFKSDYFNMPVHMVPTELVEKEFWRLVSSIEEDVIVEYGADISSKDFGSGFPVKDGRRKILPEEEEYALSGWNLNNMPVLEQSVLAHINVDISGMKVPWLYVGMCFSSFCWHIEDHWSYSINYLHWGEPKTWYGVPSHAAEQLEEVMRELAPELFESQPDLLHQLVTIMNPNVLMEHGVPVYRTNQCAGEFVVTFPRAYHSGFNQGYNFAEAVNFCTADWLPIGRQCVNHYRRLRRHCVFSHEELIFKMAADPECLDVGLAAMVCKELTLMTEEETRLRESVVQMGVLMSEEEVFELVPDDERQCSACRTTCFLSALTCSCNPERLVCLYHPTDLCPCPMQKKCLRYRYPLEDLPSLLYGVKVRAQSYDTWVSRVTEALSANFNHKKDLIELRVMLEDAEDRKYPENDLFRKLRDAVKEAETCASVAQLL

B1: ARID-C1 (dsDNA)
DNA 1: GGGCTCCCGCCCCACGAAAAG
DNA 2: CTTTTCGTGGGGCGGGAGCCC
binding signal (KDM5A-K152E): ~3 fold lower affinity than KDM5A-CAT | binding signal (KDM5A-MutR): ~3 fold lower affinity than KDM5A-CAT
